Results as given in the nanobody polyreactivity screen of Harvey et al. (2022).

Assay: yeast display, Sf9 membrane polyspecificity reagent, FACS + sequencing; frameworks hold sequencing errors
In short: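 Synthetic nanobody libraries on Saccharomyces cerevisiae BJ5465 were galactose-induced for 36–48 hours, stained 1 hour at 4 °C with 10% biotinylated, detergent-solubilized Sf9 membrane reagent and enriched on streptavidin microbeads. FACS then separated cells into low and high (top ~1%) gates by anti-HA (expression) and streptavidin (reagent binding) fluorescence. Genes were colony-PCR amplified, MiSeq 2 × 250 sequenced and CDR-length filtered. A clone's polyreactivity label is that of its gate of origin.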

Sequence | polyreactivity (PSR sort gate)
QVQLVESWGGLVQAGGTLRLSCAASGGIFIDYTMGWYRQAPGKERELVAAITRGGSTYYADSVKGRFTISRDNAKNTVYLEMNSLIAEDTAVYYCAARANSPVGHNRFGYWGQGTQVTVSS | low polyreactivity
QVQLVESGGGLVQAGGSLRLSCAASGSIFVVNAMGWYRQAPGKERELVAAITFSGDSTYYADSVKGRFTISRDNAKNTVYLQMNSLKPEDTAVYYCAAARRSSHWFTYDYWGQGTQVTVSS | high polyreactivity
QVQLVESGGGLVQAVGSLRLSCAASGSIFRKYVMGWYRQAPGKERELVAVISSGTGTYYADSVKGRFTISRDNAKNSVYLQMNSLKPEDTAVYYCAAKYFGKWYKYYYWGQGTQVTVSS | high polyreactivity
QVQLEESGGRLVQAGGSLRLSCAASGSIIGRYTMGWYRQAPGKERELVAAISGSGGSTYYADSVKGRFTISRDNAKNSVYFQMYSLKPEDTAVYYCAAYYYGRYLMVYWGQGTQVTVAS | high polyreactivity
QVQLVESGGGIVQAGGSLRLSCAATGNTFRYYTMGWYRKAPGKERELVAAINYRGSRTYYADSVKGRFTISRDNAKNTVYLQINSLKPEDTAVYYCARAYNAGYRYRSDYWGQGTQVTVSS | high polyreactivity
QVQLVESGGGLVQAGGSLRLSCAASGSIFYRYAMGWYRQAPGKEWELVAAISYSGGSTYYADSVKGRFPISRDNAKNTVYVQMNSLKPEDTAVNYCATDYPPPISDYSRYYGYGYWGQGTQVTVSS | low polyreactivity
QVQLVESGGGLVQAGGSLRLSCAASGSTFRYNAMGWYRQAPGKVRQLVAAIDKRGDSTYADSVKGRFTISRDNAKNTVYLQMNSLKPEDTAVYYCAADSDSKYNYGFLWDTYEYWGQGTQVTVSS | low polyreactivity
QVQLVESGGGLVQAGGSLRLSCAASGSTFYGNAMVWYRQAPGKERELVARITTSGSTYYADSVKGRFTISRDNAKNTVYLQMNSLKPEDTAVYYCAKRGYGPSIRYYYWGHGTQVTVSS | high polyreactivity
QVQLVESGGGLVQAGGSLRLSCAASGSTFHLYAMGWYRQAPGKERELVADIDLSGGSTYYADSVKGRFTISRDNAKNTVYLQMNSLKPEDTAVYYCAADHVSSLGFDYWGQGTQVTVSS | low polyreactivity
QVQLVESGGGLVQAGGSLRLSCAASGRTLNTYTMGWYRQAPGKERELVAAITWRGGRTYYADSVKRRFTISRDYAKNTVYLQMNSLKPEDTAVYYCAAVRRNKPVGYGYWGQGTQVTVSS | high polyreactivity
QVQLQESGGLVQAGGLRLSCAASGSVSYQEAMGWYRQAPGKERELVATISFGAKTNYADSVKGRFTISRDNAKNTVYLHINSLNPEDTAVYYCAAESLFDDYYGYWGQGTQVTVSS | low polyreactivity
QVQLVESGGGLVQAGGSLRLSCAASGLIFSHYTMGWYRQAPGKERELVAAITSSGGSTYYADSVKGRFTISRDNAKNTVYLQMNSLKPEDTAVYYCNVDYYEPSWYDDDYWGQGTQVTVSS | low polyreactivity
QVQLVESGGGLVQAGGSLRLSCAASGSTFSAYAMGWYRQAPGKERELVAAISKRGGSTYYADSVKGRFTISRDNAKNTVYLQMNSLKPEDTAVYYCNKESLYREFDYWGQGTQVTVSS | low polyreactivity
QVQLVESGGGLVQAGGSLRLSCAAYGFTFGVYALGWYRQAPGKERELVAAISRIGGRTYYADSLKGRYTISRDNAKNTVYVQMNSLKPEDTAVYYCAESPRQGMYYWGQGTQVTVSS | high polyreactivity
QVQLVESGGGLVQAGGSLRLSCAASGSTFGVYAMGWYRQAPGKEREFVAAITSSSGSTYYADSVKGRFTISRDNAKNTVYLQMNSLKPEDTAVYYCNVQGWTRSDAGRYDNMDYWGQGTQVTVSS | low polyreactivity
QVQLVESGGGLVQAGGSLRLSSAASGSIYGYTMGWYRQAPGKERELVAAINRRADRTYYADSVKGRFTISRDNAKNTVYLEMNILKPEDTAVYYCNKGGWYTLGYWGQGTQVTVSS | high polyreactivity

Sequence | polyreactivity (PSR sort gate)
QVQLVESGGGLVQAGGSLRLSCAASGRIFPKYTMGWYRQAPGKERELVASINSSGRTTYADSVKGRFTITRDNAKNTVYLQMNSLKPEDTAVYYCAKRVFSARGYGYWGQGTQVTVSS | low polyreactivity
QVQLVESGGGLVQAGGSLRLSCAASGSTFWFYAMGWYRQAPGKERELVAVISNSGSTYYADSVKGRFTISRDNAKNTVYLQMNSLKPEDTAVYYCAAYAYQYRFSGYGYWGQGTQVTVSS | low polyreactivity
QVQLVESGGGLVQAGGSLRLSCAASGATFGRNAMGWYRQAPGKERELVAAISWSASRTSYADSVKGRFTISRDNAKNTVYLQMNSLKPEDTAVYYCAARIWRSYYPYDYWGQGTQVTVSS | high polyreactivity
QVQLVESGGGLVQAGGSLRLSCAASGSIIFTNTMGWYRQAPGKERELVAAITSGGSTYYADSVKGRFTISRDNAKNTVYLQMNSLKPEDTAVYYCAAAISYYGKYYRLDYWGQGTQVTVSS | low polyreactivity
QVQLVESGAGLVQAGGSLSLSCAASVSILRFYAMGWYRQAPGKERELVAAISTRGGSTYYADSVKGRFTISRVNAKYTVYLQMNSLKPEDTAVYYCAKRWPQYTDYKPMYYWGQGTQLTVSS | high polyreactivity
QVQLVESGGGLVQAGGSLRLICAASGIIFYVNAMGWYRQAPGKERELVAAITRGGTTYYADSVKGRFTISRDNAKNTVYLQMNSLKPEDTAVYYCAARLRYTTGIYYYWGQGTQVTVSS | high polyreactivity
QVQLVESGGGLVQAGASLRLSCADSGIIFQVYAMGWYRQAPGKERELVAAISDDGSTNYADSVKGRFTISRDNAKNTVYLQMNSLKPEDTAVYYCAKESWGRLYYRYDYWGQGTQVTVSS | low polyreactivity
QVQLVESGGGLVQAGGSLRLSCAASGRTFWYYAMGWYRQAPGKERELVAAISTTGSSTYYADSVKGRFTISRDNAKNTVYLQMNSLKPEDTAVYYCAADSGAQYKYLWGYDYWGQGTQVTVSS | low polyreactivity
QVQLVQSCGGLVQAGGSLRLSCATSGFTFPLYAMGWYRQAPGKERELVAAISSGSSTYYADSVKGRFTISRDNAKNTVYLQMNSLKPEDTAVYYCAAQKRGSPGYRRDYWGQGTQVTVSS | high polyreactivity
QVQLVESGGGLVQAGGSLRLSCAASGFTFGLYGMGWYRQAPGKERELVAAISSSGGDTYYADSVKGRFTISRDNAKNTVYLQMNSLKPEDTAVYYCAADRLPQYDYWGQGTQVTVSS | low polyreactivity
QVQLVESGGGLVQAGGSLRLSCAASGLTFLYYAMGWYRQAPGKERELVASISRGSNTNYADSVKGRFTISRDNAKNTVYLQMNSLKPEDTAVYYCAVDRRPYSGHGYDYWGQGTQVTVSS | high polyreactivity
QVQLVDSGGGLVQAGGSLRLSCAASGIISIVYAMGWYRQAPGKERELVAAISSGGSTYYADSVKGRFTISRDNAKNTVYLQMNRLKPEDTAVYYCATAYRYPPNAYFQRMDSWGQGTQVTVSS | high polyreactivity
QVQLVESGGGLVQAGGSLRLSCAASGLIFDSYAMGWDRQAPRKERELVAAITYTGGSTYYADSVKGRFTISRDNAKNSVYLQMNSLKPEDTAVYYCAARRQRERYGYWGQGTQVTVSS | high polyreactivity
QVQLVESGGGLVQEGGSLRLSCAASGRLFGTYTMGWYRQAPGKERELVAAISWSGGNTYYADSVKGRFTISRDNAKNTVYLQMNSLKPEDTAVYYCNALYYRPPKWYGYWGQGTQVTVSS | high polyreactivity
QVQLVESGGGLVQAGGSLRLSCAASGRTFRSDNAMGWYRQAPGKERELVAAISQGGGTYYADSVKGRFTISRDNAKNTVYLQMNSLKPEDTAVYYCARDAYYADPSLWYYTYDYWGQGTQVNVSS | low polyreactivity
QVELVESAGGLVQAGGSLRLSCAGSGSTFEYNAMGWYRQGPGKERELVASSTNYADSVKGRFTISRDNAKNTVYLKMNSLKPEDTAVYYCAREQGVNRYHDYWGQGTQVTVSS | low polyreactivity
